From paper PMC5218472 (PLoS Biology, 2017)

System: ADAM10
Assay: Ionomycin-induced ADAM10-mediated IL-6R ectodomain shedding in transiently transfected HEK293 cells, sIL-6R ELISA
Format: cell-based, human
Conditions: for sIL-6R shedding, Figure S4E, mean / sIL-6R shedding, Figure S4B, mean: normalised to PV Iono = 100; for sIL-6R shedding, Figure S4G, mean: normalised to PVQD Iono = 100
From the text: Analysis of IL-6R ectodomain shedding in transiently transfected HEK293 cells or stably transduced Ba/F3-gp130 cell lines by ADAM10 and ADAM17 has been described elsewhere. Analysis of IL-6R proteolysis by CG has been described previously.
The sandwich ELISA, which detects sIL-6R as well as ds-sIL-6R (4-11/Baf227 antibodies) and can be used to quantify total sIL-6R serum levels, was described previously. To specifically detect ds-sIL-6R (either recombinant or in human serum), a similar approach was used (ds6R/Baf227). Both sandwich ELISAs were performed with streptavidin-horseradish peroxidase (R&D Systems, Minneapolis, Minnesota, US) and the peroxidase substrate BM blue POD (Roche, Mannheim, Germany). The enzymatic reaction was stopped by addition of 1.8 M sulfuric acid, and the absorbance read at 450 nm on a Tecan rainbow reader (Tecan, Crailsheim, Germany).
Supplementary file pbio.2000080.s004.tif: S4 Fig Mutation of Val-356 is sufficient to block ADAM10-mediated proteolysis of the IL-6R and the Asp358Ala variant. (A) HEK293 cells were transiently transfected with Expression plasmids encoding the wildtype IL-6R (PV) or the double mutants (IE, DG) as indicated. Cells were either treated with 1 μM ionomycin for 1 h or DMSO as vehicle control. sIL-6R was precipitated from the supernatant with concanavalin A-covered Sepharose beads, and cells were lysed. Both were analyzed via Western blot, and β-actin served as loading control. One out of three experiments with similar outcome is shown. (B, C) The experiment was performed as described under (A), but sIL-6R generation was analyzed via ELISA. In (B), the amount of sIL-6R generated after ionomycin-stimulation of the wildtype IL-6R (PV) was set to 100%, and all other values were calculated accordingly. In (C), the amount of sIL-6R without stimulation was considered as constitutive shedding and set to 1 and the increase of sIL-6R was calculated. Data shown are the mean ± SD from at least three independent experiments (*p<0.05, ns = no significant difference). (D-F) HEK293 cells were transiently transfected with expression plasmids encoding the wildtype IL-6R (PV) or the single mutants (DV, IV, PE, PG) as indicated. The experiments were performed as described in (A) to (C). (G) ADAM10-mediated proteolysis of the IL-6R variants depicted in Fig 4I was analyzed as described in (B). (H) Equal numbers of Ba/F3-gp130-IL-6R_DG cells were incubated for 48 h with increasing amounts (0–100 ng/ml) of either IL-6 or Hyper-IL-6. One representative experiment out of three performed is shown (mean ± SD, biological triplicates). (TIF) Click here for additional data file.

B1: PV: wild-type human IL-6R, cleavage site Pro-355/Val-356 (protein)
chain: LAPRRCPAQEVARGVLTSLPGDSVTLTCPGVEPEDNATVHWVLRKPAAGSHPSRWAGMGRRLLLRSVQLHDSGNYSCYRAGRPAGTVHLLVDVPPEEPQLSCFRKSPLSNVVCEWGPRSTPSLTTKAVLLVRKFQNSPAEDFQEPCQYSQESQKFSCQLAVPEGDSSFYIVSMCVASSVGSKFSKTQTFQGCGILQPDPPANITVTAVARNPRWLSVTWQDPHSWNSSFYRLRFELRYRAERSKTFTTWMVKDLQHHCVIHDAWSGLRHVVQLRAQEEFGQGEWSEWSPEAMGTPWTESRSPPAENEVSTPMQALTTNKDDDNILFRDSANATSLPVQDSSSVPLPTFLVAGGSLAFGTLLCIAIVLRFKKTWKLRALKEGKTSMHPPYSLGQLVPERPRPTPVLVPLISPPVSPSSLGSDNTSSHNRPDARDPRSPYDISNTDYFFPR
modifications: N-linked glycans at Asn-55, Asn-93, Asn-221, Asn-245 and Asn-350, O-linked glycan at Thr-352 (mapped on sIL-6R shed from transfected HEK293 cells)
ratio of sIL-6R Iono / DMSO, Figure S4F, mean (mean of n = 3): 3.48
ratio of sIL-6R Iono / DMSO, Figure S4C, mean (mean of replicates): 2.623
sIL-6R shedding, Figure S4E, mean (treatment DMSO, mean of n = 3): 35.7033
sIL-6R shedding, Figure S4B, mean (treatment DMSO, mean of replicates): 40.5833
sIL-6R shedding, Figure S4G, mean (treatment DMSO, mean of n = 3): 48.1333
sIL-6R shedding, Figure S4E, mean (treatment Iono, mean of n = 3): 100
sIL-6R shedding, Figure S4B, mean (treatment Iono, mean of replicates): 100
sIL-6R shedding, Figure S4G, mean (treatment Iono, mean of n = 3): 100
